In paper PMC10833452 (2023):
Like-named read-outs stand apart in the source and are kept apart here.

B1: 3E2 monoclonal antibody (mouse IgG) (antibody, V domains shown)
VH: EVMLVESGGGVVKPGGSLKLSCAASGFSFSTYAMSWIRQTPEKSLEWVAAISSGGTNTYYPGSVKGRFTISRDKAMNTLYLQLSSLRSEDTAMYYCVRHSGNYVDSVMDYWGQGTSVTVSS
VL: QIVLTQSPAIMSASLGEEITLTCSVSSSVSDMHWYQQKSGTSPKVFIYSTSNLASGVPSRFSGSGSGTFYSLTISSVEAEDAAYYYCHQWSSWTFGGGTKLEIK
B2: 8H12 monoclonal antibody (mouse IgG) (antibody, V domains shown)
VH: EVKLEESGGGLVQPGGSMKLSCAASGFTFSDAWMDWVRQSPEKGLEWVAQIRRKANNHATYYAESVKGRFTISRDDSKSSVYLQMNSLRAEDTGIYYCIRGMTYAMDFWGQGTSVTVSS
VL: DIVMTQFQKFMSTSVGDRVSITCKASQNVRTAVAWYQQKPGQSPKAMIYLASNRHRGVPDRFTGSGCGTDFTLTISNVQCEDLADYFCLQHRNYPLTFGGGTKLEIK

Experiments:
Test in all cases: SPR
WT-RBD [1] = target: WT-RBD
WT-RBD [2] = target: WT-RBD; remark: listed apart in the source
WT-RBD [3] = target: WT-RBD; remark: listed apart in the source

Row | Binder | Kd (WT-RBD [1]) | Kd (WT-RBD [2]) | Kd (WT-RBD [3])
1 | B1 | 0.004 nM | 0.00354 nM | –
2 | B2 | 0.4 nM | – | 0.398 nM
